Data published in US20220402985A1.
Substitutions are numbered along the chain they refer to. Numbers in names are those of the source. Where “and” joins values, the source holds several entries; their conditions need not be identical. Identical values can stand only once.

B1: huNRG1(S177-Q237)(NRGE1A)::GG::huFcSEFL2 (Pb) (Fc fusion)
chain: SHLVKCAENDKSFCVNGGECFMIEGPSNPSRYLCKCPNEFTGDRCQEDFMASFYKAEELYQGGDKTHTCPPCPAPELLGGPSVFLFPPKPKDTLMISRTPEVTCVVVDVSHEDPEVKFNWYVDGVEVHNAKTKPCEEQYGSTYRCVSVLTVLHQDWLNGKEYKCKVSNKALPAPIEKTISKAKGQPREPQVYTLPPSREEMTKNQVSLTCLVKGFYPSDIAVEWESNGQPENNYKTTPPVLDSDGSFFLYSKLTVDKSRWQQGNVFSCSVMHEALHNHYTQKSLSLSPGK
B2: huNRG1(S177-Q237)(NRGE1H)::GG::huFcSEFL2 (Pb) (Fc fusion)
chain: B1 chain with A7G, N9S, D10H, E47N
B3: huNRG1(S177-Q237)(NRGE1F)::GG::huFcSEFL2 (Pb) (Fc fusion)
chain: B1 chain with F21Y, I23V, P26S, N28I, E47N
B4: huNRG1(S177-Q237)(NRGE1G)::GG::huFcSEFL2 (Pb) (Fc fusion)
chain: B1 chain with A7G, N9K, D10H, F21Y, I23V, P26S, N28I, E47N
B5: huNRG1(S177-Q237)(NRGE1J)::GG::huFcSEFL2 (Pb) (Fc fusion)
chain: B1 chain with A7G, F21Y, I23V, P26S, N28I, E47D
B6: huNRG1(S177-Q237)(NRGE1I)::GG::huFcSEFL2 (Pb) (Fc fusion)
chain: B1 chain with A7G, E47D
B7: huNRG1(S177-Q237)(NRGE1D)::GG::huFcSEFL2 (Pb) (Fc fusion)
chain: B1 chain with A7G, N9S, D10H, F21Y, I23V, P26S, N28I
B8: huNRG1(S177-Q237)(NRGE1C)::GG::huFcSEFL2 (Pb) (Fc fusion)
chain: B1 chain with A7G, N9K, D10H
B9: huNRG1(S177-Q237)(NRGE1K)::GG::huFcSEFL2 (Pb) (Fc fusion)
chain: B1 chain with N9K, D10H, E47D
B10: huNRG1(S177-Q237)(NRGE1B)::GG::huFcSEFL2 (Pb) (Fc fusion)
chain: B1 chain with A7G, F21Y, I23V, P26S, N28I
B11: huNRG1(S177-Q237)(NRGE1E)::GG::huFcSEFL2 (Pb) (Fc fusion)
chain: B1 chain with A7G, E47N
B12: :huFcSEFL2(desK)vl31(+):G4SG4:huNRG1(S177-F229)(NRGE1C) (Fc fusion)
chain: DKTHTCPPCPAPELLGGPSVFLFPPKPKDTLMISRTPEVTCVVVDVSHEDPEVKFNWYVDGVEVHNAKTKPCEEQYGSTYRCVSVLTVLHQDWLNGKEYKCKVSNKALPAPIEKTISKAKGQPREPQVYTLPPSREKMTKNQVSLTCLVKGFYPSDIAVEWESNGQPENNYKTTPPVLKSDGSFFLYSKLTVDKSRWQQGNVFSCSVMHEALHNHYTQKSLSLSPGGGGGSGGGGSHLVKCGEKHKSFCVNGGECFMIEGPSNPSRYLCKCPNEFTGDRCQEDFMASFDKTHTCPPCPAPELLGGPSVFLFPPKPKDTLMISRTPEVTCVVVDVSHEDPEVKFNWYVDGVEVHNAKTKPCEEQYGSTYRCVSVLTVLHQDWLNGKEYKCKVSNKALPAPIEKTISKAKGQPREPQVYTLPPSREEMTENQVSLTCLVEGFYPSDIAVEWESNGQPENNYETTPPVLDSDGSFFLYSDLTVDKSRWQQGNVFSCSVMHEALHNHYTQKSLSLSPGK
B13: :huFcSEFL2(desK)vl31(+):G4SG4:huNRG1(S177-F229)(NRGE1D) (Fc fusion)
chain: B12 chain with K244S, F256Y, I258V, P261S, N263I
B14: huNRG1(S177-Q237)(1D4)::GG::huFcSEFL2 (Pb) (Fc fusion)
chain: SHLVKCGERDKTFCVNGGECYVVEHSSNPSRYLCKCPNEFTGDRCQKFFLASFYKAEELYQGGDKTHTCPPCPAPELLGGPSVFLFPPKPKDTLMISRTPEVTCVVVDVSHEDPEVKFNWYVDGVEVHNAKTKPCEEQYGSTYRCVSVLTVLHQDWLNGKEYKCKVSNKALPAPIEKTISKAKGQPREPQVYTLPPSREEMTKNQVSLTCLVKGFYPSDIAVEWESNGQPENNYKTTPPVLDSDGSFFLYSKLTVDKSRWQQGNVFSCSVMHEALHNHYTQKSLSLSPGK
B15: :huFcSEFL2(desK)vl31(+):G4SG4:huNRG1(S177-Q237)(NRGE1C) (Fc fusion)
chain: DKTHTCPPCPAPELLGGPSVFLFPPKPKDTLMISRTPEVTCVVVDVSHEDPEVKFNWYVDGVEVHNAKTKPCEEQYGSTYRCVSVLTVLHQDWLNGKEYKCKVSNKALPAPIEKTISKAKGQPREPQVYTLPPSREKMTKNQVSLTCLVKGFYPSDIAVEWESNGQPENNYKTTPPVLKSDGSFFLYSKLTVDKSRWQQGNVFSCSVMHEALHNHYTQKSLSLSPGGGGGSGGGGSHLVKCGEKHKSFCVNGGECFMIEGPSNPSRYLCKCPNEFTGDRCQEDFMASFYKAEELYQDKTHTCPPCPAPELLGGPSVFLFPPKPKDTLMISRTPEVTCVVVDVSHEDPEVKFNWYVDGVEVHNAKTKPCEEQYGSTYRCVSVLTVLHQDWLNGKEYKCKVSNKALPAPIEKTISKAKGQPREPQVYTLPPSREEMTENQVSLTCLVEGFYPSDIAVEWESNGQPENNYETTPPVLDSDGSFFLYSDLTVDKSRWQQGNVFSCSVMHEALHNHYTQKSLSLSPGK
B16: :huFcSEFL2(desK)vl31(+):G4SG4:huNRG1(S177-Q237)(NRGE1D) (Fc fusion)
chain: B15 chain with K244S, F256Y, I258V, P261S, N263I
B17: :huNRG1(S177-F229)(NRGE1C)::2X(G4A)G4::huFcSEFL2v131(+) (Fc fusion)
chain: SHLVKCGEKHKSFCVNGGECFMIEGPSNPSRYLCKCPNEFTGDRCQEDFMASFGGGGAGGGGAGGGGDKTHTCPPCPAPELLGGPSVFLFPPKPKDTLMISRTPEVTCVVVDVSHEDPEVKFNWYVDGVEVHNAKTKPCEEQYGSTYRCVSVLTVLHQDWLNGKEYKCKVSNKALPAPIEKTISKAKGQPREPQVYTLPPSREKMTKNQVSLTCLVKGFYPSDIAVEWESNGQPENNYKTTPPVLKSDGSFFLYSKLTVDKSRWQQGNVFSCSVMHEALHNHYTQKSLSLSPGKDKTHTCPPCPAPELLGGPSVFLFPPKPKDTLMISRTPEVTCVVVDVSHEDPEVKFNWYVDGVEVHNAKTKPCEEQYGSTYRCVSVLTVLHQDWLNGKEYKCKVSNKALPAPIEKTISKAKGQPREPQVYTLPPSREEMTENQVSLTCLVEGFYPSDIAVEWESNGQPENNYETTPPVLDSDGSFFLYSDLTVDKSRWQQGNVFSCSVMHEALHNHYTQKSLSLSPGK
B18: :huNRG1(S177-F229)(NRGE1D)::2X(G4A)G4::huFcSEFL2v131(+) (Fc fusion)
chain: B17 chain with K9S, F21Y, I23V, P26S, N28I
B19: :huNRG1(S177-F229)(NRGE1C)::2X(G4E)G4::huFcSEFL2v131(+) (Fc fusion)
chain: B17 chain with A58E, A63E
B20: :huNRG1(S177-F229)(NRGE1D)::2X(G4E)G4::huFcSEFL2v131(+) (Fc fusion)
chain: B17 chain with K9S, F21Y, I23V, P26S, N28I, A58E, A63E

What was measured:
[1] = target: ErbB4 on neonatal rat cardiomyocytes (rat) (UniProt Q62956); assay: cell-based or functional assay
Chain of ErbB4 on neonatal rat cardiomyocytes (rat) (Q62956 26-1308): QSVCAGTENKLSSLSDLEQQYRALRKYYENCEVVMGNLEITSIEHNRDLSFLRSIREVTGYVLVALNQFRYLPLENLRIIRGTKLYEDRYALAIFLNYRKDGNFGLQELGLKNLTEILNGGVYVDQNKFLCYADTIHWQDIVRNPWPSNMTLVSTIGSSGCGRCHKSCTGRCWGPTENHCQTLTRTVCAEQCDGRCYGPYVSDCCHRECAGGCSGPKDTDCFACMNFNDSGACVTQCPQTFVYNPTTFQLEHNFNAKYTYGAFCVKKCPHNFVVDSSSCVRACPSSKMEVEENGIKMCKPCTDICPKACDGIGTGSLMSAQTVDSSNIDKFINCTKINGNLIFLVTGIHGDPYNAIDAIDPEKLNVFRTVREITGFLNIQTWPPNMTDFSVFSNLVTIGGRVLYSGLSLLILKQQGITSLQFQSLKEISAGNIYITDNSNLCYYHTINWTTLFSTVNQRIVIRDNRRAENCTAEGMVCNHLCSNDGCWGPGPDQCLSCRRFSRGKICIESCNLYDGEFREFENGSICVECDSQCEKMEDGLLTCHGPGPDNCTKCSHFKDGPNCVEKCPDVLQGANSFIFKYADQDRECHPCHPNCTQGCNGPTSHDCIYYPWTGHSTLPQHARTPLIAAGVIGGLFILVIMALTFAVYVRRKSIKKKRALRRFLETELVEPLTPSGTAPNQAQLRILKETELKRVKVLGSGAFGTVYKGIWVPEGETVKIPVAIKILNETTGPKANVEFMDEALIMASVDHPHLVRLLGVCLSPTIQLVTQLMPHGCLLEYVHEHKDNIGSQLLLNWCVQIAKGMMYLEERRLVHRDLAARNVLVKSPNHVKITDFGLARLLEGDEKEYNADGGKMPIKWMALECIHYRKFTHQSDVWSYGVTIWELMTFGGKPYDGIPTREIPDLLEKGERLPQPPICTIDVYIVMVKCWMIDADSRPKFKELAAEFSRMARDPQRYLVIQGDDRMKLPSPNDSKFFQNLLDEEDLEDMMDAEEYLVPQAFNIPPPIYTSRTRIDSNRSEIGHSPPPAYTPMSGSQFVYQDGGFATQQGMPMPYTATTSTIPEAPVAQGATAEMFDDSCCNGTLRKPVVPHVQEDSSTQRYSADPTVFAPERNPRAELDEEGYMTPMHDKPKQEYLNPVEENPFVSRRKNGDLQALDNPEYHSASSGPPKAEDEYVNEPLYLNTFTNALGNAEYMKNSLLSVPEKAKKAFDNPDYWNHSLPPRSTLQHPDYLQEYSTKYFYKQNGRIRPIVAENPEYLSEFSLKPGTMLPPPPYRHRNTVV

[2] = target: ErbB3 on rat Schwann cells (rat) (UniProt Q62799); assay: cell-based or functional assay
Chain of ErbB3 on rat Schwann cells (rat) (Q62799 20-1339): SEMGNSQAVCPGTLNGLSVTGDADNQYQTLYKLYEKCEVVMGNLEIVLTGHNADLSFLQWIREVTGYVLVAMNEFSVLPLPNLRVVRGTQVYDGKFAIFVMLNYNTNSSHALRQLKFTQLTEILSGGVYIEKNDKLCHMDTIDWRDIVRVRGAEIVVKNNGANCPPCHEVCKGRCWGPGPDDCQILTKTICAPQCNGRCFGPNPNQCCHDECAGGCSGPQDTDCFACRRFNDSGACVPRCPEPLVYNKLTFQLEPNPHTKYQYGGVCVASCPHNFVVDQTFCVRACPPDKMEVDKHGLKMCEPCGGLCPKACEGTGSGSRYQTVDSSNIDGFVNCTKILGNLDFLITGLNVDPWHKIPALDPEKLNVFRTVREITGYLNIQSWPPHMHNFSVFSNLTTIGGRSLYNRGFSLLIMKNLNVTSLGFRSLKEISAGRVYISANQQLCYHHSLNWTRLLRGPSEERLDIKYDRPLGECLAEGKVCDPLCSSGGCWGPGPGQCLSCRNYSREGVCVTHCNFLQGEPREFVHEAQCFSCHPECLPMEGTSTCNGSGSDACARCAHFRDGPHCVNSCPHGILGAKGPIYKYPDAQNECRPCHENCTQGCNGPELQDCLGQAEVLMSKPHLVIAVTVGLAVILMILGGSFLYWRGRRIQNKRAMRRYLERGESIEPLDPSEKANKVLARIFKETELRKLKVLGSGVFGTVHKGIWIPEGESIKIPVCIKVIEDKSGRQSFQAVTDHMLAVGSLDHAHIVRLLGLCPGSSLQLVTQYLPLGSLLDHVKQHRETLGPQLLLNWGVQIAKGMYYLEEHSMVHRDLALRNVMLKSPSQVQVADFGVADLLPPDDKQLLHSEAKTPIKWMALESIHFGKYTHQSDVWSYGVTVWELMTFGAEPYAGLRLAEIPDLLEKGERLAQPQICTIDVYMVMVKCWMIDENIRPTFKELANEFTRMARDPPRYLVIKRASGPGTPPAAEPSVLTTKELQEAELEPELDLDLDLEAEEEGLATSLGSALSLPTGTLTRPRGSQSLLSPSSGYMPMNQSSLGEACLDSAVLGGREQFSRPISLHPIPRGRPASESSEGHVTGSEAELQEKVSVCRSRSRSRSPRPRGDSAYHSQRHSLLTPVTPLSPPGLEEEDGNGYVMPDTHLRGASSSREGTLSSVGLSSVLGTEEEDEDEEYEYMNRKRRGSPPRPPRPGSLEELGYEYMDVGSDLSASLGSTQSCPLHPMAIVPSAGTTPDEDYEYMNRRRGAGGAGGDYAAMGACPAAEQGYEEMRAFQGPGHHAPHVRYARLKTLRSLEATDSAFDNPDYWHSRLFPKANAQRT

Molecule | Cardiomyocyte (CM) (ErbB4) Avg EC50 [1] | Selectivity SC/CM [1] | Schwann cells (SC) (ErbB3) Avg EC50 [2] | CM % Agonism AVG [1]
huNRG1(S177-Q237)(wt)::3x(G4Q)::huFcSEFL2 (Pb) (from UniProt P0DOX5 223-449) (Fc fusion) | 0.21 nM | 0.3 | 0.07 nM | –
huNRG1(S177-S228)(wt)((G4E)2:G4)::huFcSEFL2 (Pb) (Fc fusion) | 0.084 nM | 0.264 | 0.0222 nM | 92.6%
huNRG1(S177-F229) huIgG1z SELF2 Fc (Fc fusion) | 0.31 nM | 0.452 | 0.14 nM | 91.4%
huNRG1(S177-F229)(wt)::3x(G4Q)::huFcSEFL2 (Pb) (Fc fusion) | 0.34 nM | 0.3 | 0.1 nM | –
huNRG1(S177-S228)(wt)::3x(G4Q)::huFcSEFL2 (Pb) (from UniProt P0DOX5 300-449) (Fc fusion) | 2.6 nM | 0.03 | 0.07 nM | –
B1 | 1.84 nM | > 5500 | > 10000 nM | 72%
B2 | 0.286 nM | > 10000 | > 10000 nM | 88%
B3 | 0.65 nM | > 10000 | > 10000 nM | 90%
B4 | 0.218 nM | > 10000 | > 10000 nM | 84%
B5 | 14.1 nM | 710 | > 10000 nM | 68%
B6 | 22.9 nM | 437 | > 10000 nM | 67%
B7 | 0.303 nM and 0.33 nM | > 10000 | > 10000 nM | 83%
B8 | 0.476 nM and 0.41 nM | > 10000 | > 10000 nM | 82%
B9 | 7.54 nM | 1320 | > 10000 nM | 66%
B10 | 1.48 nM | > 6700 | > 10000 nM | 76%
B11 | 0.995 nM | > 10000 | > 10000 nM | 83%
B12 | 6.4 nM | > 10000 | – | 62.7%
B13 | 4.3 nM | > 10000 | – | 72.3%
B14 | 0.924 nM and 0.576 nM | – | – | –
B15 | 0.3 nM | > 10000 | – | 85.4%
B16 | 0.23 nM | > 10000 | – | 88.7%
B17 | 3.4 nM | > 10000 | – | 91.6%
B18 | 2 nM | > 10000 | – | 87.1%
B19 | 2.9 nM | > 10000 | – | 94%
B20 | 1.9 nM | > 10000 | – | 91.9%
